Reference: patent US20140271458A1 (AbbVie / Abbott, published 2014)
Substitutions are numbered along the chain they refer to. Each block holds one binder with its values, some of them ahead of it.

Tests used:
[1] = biological target: T1, Recombinant Human IL-17 (human, UniProt Q16552 20-155, limits assumed); assay: cell-based or functional assay
T1 sequence (looked up): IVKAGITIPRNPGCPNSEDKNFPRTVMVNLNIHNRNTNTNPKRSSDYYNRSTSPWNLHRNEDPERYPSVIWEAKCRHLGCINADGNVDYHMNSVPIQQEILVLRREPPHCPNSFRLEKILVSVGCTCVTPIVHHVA

[2] = biological target: T1, Recombinant Human IL-17; assay: SPR, Biacore T200, antibody captured, antigen 0.8-100 nM, 25 C
Procedure: (§1) The BIACORE assay (GE, Healthcare Piscataway, N.J.) determined the affinity of antibodies or DVD-Ig proteins with kinetic measurements of on-rate and off-rate constants. Binding of antibodies or DVD-Ig proteins to a target antigen (for example, a purified recombinant target antigen) was determined by surface plasmon resonance-based measurements with a Biacore T200 using running HBS-EP+buffer from GE Healthcare at 25° C. AN chemicals were obtained from GE Healthcare unless otherwise described. For example, approximately 5000 RU of goat anti-mouse IgG, (Fcγ), fragment specific polyclonal antibody (Pierce Biotechnology Inc, Rockford, Ill.) diluted in 10 mM sodium acetate (pH 4.5) was directly immobilized across a CM5 research grade biosensor chip using a standard amine coupling kit according to manufacturer's instructions. Unreacted moieties on the biosensor surface were blocked with ethanolamine. Modified carboxymethyl dextran surface in flowcell 1 was used as a reference surface. Rate constants were derived by making kinetic binding measurements at different antigen concentrations ranging from 0.8-100 nM. Binding was recorded as a function of time and kinetic rate constants were calculated. In this assay, association rate was evaluated for 5 minutes and dissociation was monitored for 10 minutes. For kinetic screening analysis, rate equations derived from the 1:1 binding model were fitted simultaneously to association and dissociation phases of all injections (using global fit analysis with Rmax fit locally to account for capture variations) with the use of Biaevaluation software. Purified antibodies or DVD-Ig proteins were diluted in HEPES-buffered saline for capture across goat anti-mouse IgG specific reaction surfaces. Antibodies or DVD-Ig proteins to be captured as a ligand were injected over reaction matrices at a flow rate of 5 μl/minute. The association and dissociation rate constants, kₒₙ (M⁻¹s⁻¹) and koff (s⁻¹) were determined under a continuous flow rate of 50 μl/minute. Rate constants were derived by making kinetic binding measurements at different antigen concentrations ranging from 0.8-100 nM. Binding was recorded as a function of time and kinetic rate constants were calculated. In this assay, association rate was evaluated for 5 minutes and dissociation was monitored for 10 minutes.

[3] = biological target: T2, Recombinant Human IL-1b (human, UniProt P01584 117-269); assay: cell-based or functional assay
[4] = biological target: T2, Recombinant Human IL-1b; assay: SPR, Biacore T200, antibody captured, antigen 0.8-100 nM, 25 C
Procedure: as §1

[5] = biological target: T1, Recombinant Human IL-17; assay: SPR, Biacore T200, DVD-Ig captured, antigen 0.8-100 nM, 25 C
Procedure: as §1

[6] = biological target: T2, Recombinant Human IL-1b; assay: as above
Procedure: as §1

B1: AB273 (antibody, V domains shown)
VH: EVQLVQSGAEVKKPGSSVKVSCKASGYTFTDYEIHWVRQAPGQGLEWMGVNDPESGGTFYNQKFDGRVTLTADESTSTAYMELSSLRSEDTAVYYCTRYSKWDSFDGMDYWGQGTTVTVSS
VL: DIQMTQSPSSLSASVGDRVTITCRASSGIISYIDWFQQKPGKAPKRLIYATFDLASGVPSRFSGSGSGTDYTLTISSLQPEDFATYYCRQVGSYPETFGQGTKLEIKR
notes: Parent anti-IL-17 antibody; also called AB273VH
C-Terminal VD IL17 Neutralization Assay (IC50 nM) [1]: 0.031 nM
Kd [2]: 4.6 pM
koff [2]: 1.3e-05 s⁻¹
kon [2]: 2.7e+06 M⁻¹ s⁻¹

B5: DVD3415 (bispecific antibody, human IgG1)
heavy: EVQLVESGGGVVQPGRSLRLSCSASGFIFSRYDMSWVRQAPGKGLEWVAYISHGGAGTYYPDSVKGRFTISRDNSKNTLFLQMDSLRPEDTGVYFCARGGVTKGYFDVWGQGTPVTVSSGGGGSGGGGSEVQLVQSGAEVKKPGSSVKVSCKASGGSFGGYGIGWVRQAPGQGLEWMGGITPFFGFADYAQKFQGRVTITADESTTTAYMELSGLTSDDTAVYYCARDPNEFWGGYYSTHDFDSWGQGTTVTVSSASTKGPSVFPLAPSSKSTSGGTAALGCLVKDYFPEPVTVSWNSGALTSGVHTFPAVLQSSGLYSLSSVVTVPSSSLGTQTYICNVNHKPSNTKVDKKVEPKSCDKTHTCPPCPAPEAAGGPSVFLPPPKPKDTLMISRTPEVTCVVVDVSHEDPEVKFNWYVDGVEVHNAKTKPREEQYNSTYRVVSVLTVLHQDWLNGKEYKCKVSNKALPAPIEKTISKAKGQPREPQVYTLPPSREEMTKNQVSLTCLVKGFYPSDIAVEWESNGQPENNYKTTPPVLDSDGSFFLYSKLTVDKSRWQQGNVFSCSVMHEALHNHYTQKSLSLSPGK
light: DIQMTQSPSSLSASVGDRVTITCRASGNIHNYLTWYQQTPGKAPKLLIYNAKTLADGVPSRFSGSGSGTDYTFTISSLQPEDIATYYCQHFWSIPYTFGQGTKLQITRGGSGGGGSGEIVLTQSPDFQSVTPKEKVTITCRASQDIGSELHWYQQKPDQPPKLLIKYASHSTSGVPSRFSGSGSGTDFTLTINGLEAEDAGTYYCHQTDSLPYTFGPGTKVDIKRTVAAPSVFIFPPSDEQLKSGTASVVCLLNNFYPREAKVQWKVDNALQSGNSQESVTEQDSKDSTYSLSSTLTLSKADYEKHKVYACEVTHQGLSSPVTKSFNRGEC
notes: human kappa; also called DVD3415H; DVD3415L
Kd [5]: < 4.8 pM
koff [5]: < 1e-06 s⁻¹
kon [5]: 210000 M⁻¹ s⁻¹
Kd [6]: 51 pM
koff [6]: 3.8e-05 s⁻¹
kon [6]: 740000 M⁻¹ s⁻¹
C-Terminal VD IL17 Neutralization Assay (IC50 nM) [1]: 0.091 nM
N-Terminal VD IL-1β Neutralization Assay (IC50 nM) [3]: 0.027 nM

B6: DVD3418 (bispecific antibody, human IgG1)
heavy: B5 heavy with P88A, G92A, F95Y, T102Y
light: B5 light
notes: human kappa; also called DVD3418H; DVD3418L
Kd [5]: < 4.8 pM
koff [5]: < 1e-06 s⁻¹
kon [5]: 210000 M⁻¹ s⁻¹
Kd [6]: 34 pM
koff [6]: 1.8e-05 s⁻¹
kon [6]: 540000 M⁻¹ s⁻¹
C-Terminal VD IL17 Neutralization Assay (IC50 nM) [1]: 0.068 nM
N-Terminal VD IL-1β Neutralization Assay (IC50 nM) [3]: 0.018 nM

B8: AB461 (antibody, V domains shown)
VH: EVQLVQSGAEVKKPGESVKISCKASGGSFRSYGISWVRQAPGQGLEWMGGITHFFGITDYAQKFQGRVTITADESTTTAYMELSGLTSDDTAVYYCAREPNDFWGGYYDTHDFDSWGQGTTVTVSS
VL: EIVLTQSPDFQSVTPKEKVTITCRASQNIGSELHWYQQKPDQSPKLLIKYASHSISGVPSRFSGSGSGTDFTLTINGLEAEDAATYYCHQSDTLPHTFGQGTKVDIKR
notes: Parent anti-IL-17 antibody; also called AB461VH
Kd [2]: 0.86 pM
koff [2]: 5.3e-06 s⁻¹
kon [2]: 6.2e+06 M⁻¹ s⁻¹

Second part, the binder after the results:

N-Terminal VD IL-1β Neutralization Assay (IC50 nM) [3]: 0.239 nM
Kd [4]: 80 pM
koff [4]: 0.00053 s⁻¹
kon [4]: 6.6e+06 M⁻¹ s⁻¹
B2: AB270 (antibody, V domains shown)
VH: EVQLQESGPGLVKPSETLSLTCTVSGFSLSDYGVSWIRQPPGKGLEWLGLIWGGGDTYYNSPLKSRLTISKDNSKSQVSLKLSSVTAADTAVYYCAKQRTLWGYDLYGMDYWGQGTLVTVSS
VL: DTQVTQSPSSLSASVGDRVTITCITSTDIDVDMNWYQQKPGKPPKLLISQGNTLRPGVPSRFSSSGSGTDFTFTISSLQPEDFATYYCLQSDNLPLTFGQGTKLEIKR
notes: Parent anti-IL-1β antibody; also called AB270VH

N-Terminal VD IL-1β Neutralization Assay (IC50 nM) [3]: 0.424 nM
Kd [4]: 140 pM
koff [4]: 0.00056 s⁻¹
kon [4]: 4e+06 M⁻¹ s⁻¹
B3: AB272 (antibody, V domains shown)
VH: EVQLVESGGGLVQPGGSLRLSCAVSGFTLSDYGVSWIRQAPGKGLEWLGLIWGGGDTYYNSPLKSRLTISKDNSKSTVYLQMNSLRAEDTAVYYCAKQRTLWGYDLYGMDYWGQGTLVTVSS
VL: B2 VL with D1E, Q3T
notes: Parent anti-IL-1β antibody; also called AB272VH

N-Terminal VD IL-1β Neutralization Assay (IC50 nM) [3]: 0.301 nM
Kd [4]: 110 pM
koff [4]: 0.00051 s⁻¹
kon [4]: 4.6e+06 M⁻¹ s⁻¹
B4: AB271 (antibody, V domains shown)
VH: B2 VH
VL: DTVVTQSPAFLSVTPGEKVTITCITSTDIDVDMNWYQQKPDQPPKLLISQGNTLRPGVPSRFSSSGSGTDFTFTISSLEAEDAATYYCLQSDNLPLTFGQGTKLEIKR
notes: Parent anti-IL-1β antibody; also called AB271VH

C-Terminal VD IL17 Neutralization Assay (IC50 nM) [1]: 0.048 nM
B7: AB420 (antibody, V domains shown)
VH: EVQLVQSGAEVKKPGSSVKVSCKASGGSFGGYGIGWVRQAPGQGLEWMGGITPFFGFADYAQKFQGRVTITADESTTTAYMELSGLTSDDTAVYYCARDPNEFWGGYYSTHDFDSWGQGTTVTVSS
VL: B8 VL with N28D, S43P, I55T, A84G, S91T, T93S, H96Y, Q100P
